We go through six substances from patent US20230357367A1.

Assay in all cases: cell-based or functional assay
For test [1], the target named is SARS-CoV-2 Delta Spike on virus particles (SARS-CoV-2).
Test [2] addresses SARS-CoV-2 Omicron BA.2.12.1 Spike on pseudovirus (SARS-CoV-2).
Test [3] has as its target SARS-CoV-2 Omicron BA.2 Spike on pseudovirus (SARS-CoV-2).
For test [4], the target named is SARS-CoV-2 Omicron BA.4/5 Spike on pseudovirus (SARS-CoV-2).
Test [5] deals with SARS-CoV-2 Omicron BA.1 Spike on virus particles (SARS-CoV-2).
Test [6] concerns the target SARS-CoV-2 Delta Spike on virus particles (SARS-CoV-2). This is another data set of the same source.
The target in test [7] is SARS-CoV-2 Omicron BA.2.12.1 Spike on pseudovirus (SARS-CoV-2). This is another data set of the same source.
Test [8] concerns the target SARS-CoV-2 Omicron BA.2 Spike on pseudovirus (SARS-CoV-2). This is another data set of the same source.
Test [9] has as its target SARS-CoV-2 Omicron BA.4/5 Spike on pseudovirus (SARS-CoV-2). This is another data set of the same source.
Test [10] has as its target SARS-CoV-2 Omicron BA.1 Spike on virus particles (SARS-CoV-2). The source holds these as a separate data set.
Test [11] concerns the target spike (SARS-CoV-2, BA.2) (SARS-CoV-2).

Read-outs that look alike come from different tables or passages of the source. A value given as a limit tells only on which side of the number the result lay.

In the case of AZD1061 (antibody), the % neutralization at 4.5 µg/ml, pseudovirus was 100% in test [1]; 99.8% in test [2]; 99.7% in test [3]; 96.7% in test [4]; 83.9% in [5]. The IC50, pseudovirus neutralization in test [6] was 0.0059 µg/mL; in test [7], 0.0051 µg/mL; in [8], 0.0058 µg/mL; in test [9], 0.0412 µg/mL; in test [10], 1.22 µg/mL.
Consider AZD8895 (antibody), for which the % neutralization at 4.5 µg/ml, pseudovirus in test [1] turned out to be 102%; in test [2] it was 94.2%; in [3], 93.9%; in test [4], 25.8%; in [5], 96.5%. Moreover, the IC50, pseudovirus neutralization in test [6] stood at 0.0005 µg/mL; in test [7] it was 0.415 µg/mL; in [8], 0.608 µg/mL; in test [10], 1.16 µg/mL.
Bebtelovimab (antibody) showed a Neutralization - IC50, pseudovirus in [4] of 0.0003 µg/mL.
On to “Sotrovimab VH/VL (human IgG1 molecule expressing the same variable regions of Sotrovimab) (antibody)”, for which the % neutralization at 4.5 µg/ml, pseudovirus in test [1] was determined as 101%; in test [2], 76.9%; in [3], 73.1%; in test [4], 60.5%; in test [5] it was 99.4%. Further, the IC50, live virus neutralization in test [1] came to 0.0579 µg/mL; in test [5], 0.411 µg/mL. In addition, the IC50, pseudovirus neutralization in [1] was 0.065 µg/mL; in test [2], 1.2 µg/mL; in [3], 0.704 µg/mL; in test [4] it was above 4.5 µg/mL; in test [6] it was 0.0123 µg/mL; in test [7], 0.714 µg/mL. For the same substance, the IC50, pseudovirus neutralization in test [8] is 0.393 µg/mL; in test [9] it was 0.666 µg/mL; in test [10], 0.0633 µg/mL. Moreover, the Neutralization - IC50, pseudovirus in test [4] came out at 0.424 µg/mL.
Consider sotrovimab VH/VL-hamIgG2a (antibody), for which the EC50, pseudovirus neutralization, Vero E6 in test [11] was 0.361 µg/mL.
Consider sotrovimab VH/VL-huIgG1 (antibody), for which the EC50, pseudovirus neutralization, Vero E6 in test [11] is 0.862 µg/mL.
